Measured values from US20170073430A1 (published 2017).
Where two headings read alike, the source gives them in different places.

Experiments:
Assay in all cases: SPR
[1] = target: T1, monomeric hRNF43-His antigen (UniProt Q68DV7 24-197)
T1 chain: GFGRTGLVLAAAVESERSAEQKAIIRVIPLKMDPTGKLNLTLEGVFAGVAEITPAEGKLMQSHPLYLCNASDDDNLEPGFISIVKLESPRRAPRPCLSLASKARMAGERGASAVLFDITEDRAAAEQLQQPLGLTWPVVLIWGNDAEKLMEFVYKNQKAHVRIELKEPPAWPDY

[2] = target: T1, monomeric hRNF43-His antigen
[3] = target: T1, monomeric hRNF43-His antigen
[4] = target: T1, monomeric hRNF43-His antigen
SC37.78 = target: SC37.78
rSC37.39 = target: rSC37.39
rSC37.67 = target: rSC37.67
rSC37.17 = target: rSC37.17
SC37.23 = target: SC37.23
SC37.9 = target: SC37.9

B1: hSC37.67 (antibody, V domains shown)
VH: QVQLVQSGAEVKKPGASVKVSCKASGYTFTRYWIEWVRQAPGQRLEWMGEILPGSGSTNYNEKFKGRVTITADTSASTAYMELSSLRSEDTAVYYCERRGAYWGQGTLVTVSS
VL: DIQMTQSPSSLSASVGDRVTITCKASEDIYNRLAWYQQKPGKAPKLLISGATSLETGVPSRFSGSGSGTDYTLTISSLQPEDFATYYCQQNWSTPPTFGGGTKVEIKR
[1]
  Kd: 4.2 nM

B2: hSC37.2 (antibody, V domains shown)
VH: EVQLVESGGGLVQPGGSLRLSCAASGFTFSDFDMEWVRQAPGKGLEWVGASRNKANDYTTQYSASVKGRFTISRDTSKNSLYLQMNSLKTEDTAVYYCARDRYDYALDYWGQGTTVTVSS
VL: DIQMTQSPSSLSASVGDRVTITCKSSQTLLYYSNQKNYLAWYQQKPGKVPKLLIYWASTRDSGVPSRFSGSGSGTDFTLTISSLQPEDVATYYCQQYYNYPLTFGQGTKLEIKR
[2]
  Kd: 120 nM

B3: SC37.17 (antibody, V domains shown)
VH: EVQLQQSGADLVKPGASVKLSCTGSGFNIKDTYIHWVRQRPEQGLEWIGRIDPANGKANYDPKFQGKATMTADTSSKTVYVQLSSLTSEDTAVYYCALGGGYYGMDYWGRGTSVTVSS
VL: NIVLTQSPASLAVSLGQRATISCRASESVDSYGNSFMHWYQQKPGQPPKLLIYLASNLESGVPARFSGSGSRTDFTLTIDPVEADDAATYYCQQNNEDPLTFGAGTKLELK
[3]
  Kd: 9.3 nM

B4: SC37.2 (antibody, V domains shown)
VH: EVNLVESGGGLVQPGGSLRLSCATSGFTFSDFDMEWVRQPPGKRLEWIAASRNKANDYTTQYSASVKGRFIVSRDTSQSIVYIQMNALRAEDTAIYYCARDRYDYALDYWGQGTSVTVSS
VL: DIVMSQSPSSLAVSVGEKVTMSCKSSQTLLYYSNQKNYLAWYQRKPGLSPKLLIYWASTRDSGVPDRFTGSGSGTDFTLTISSVKAEDLAVYYCQQYYNYPLTFGAGTKLELK
[2]
  Kd: 220 nM

B5: SC37.3 (antibody, V domains shown)
VH: QIQLVQSGPELKKPGETVKISCKASGYTFTNYGMNWVRQAPGKGLKWVGWINTNTGEPTYADDFKGRFAFSLETSASTAYLQISNLKNEDMSTYFCAGSHDYSFAYWGQGTLVTVSA
VL: QAVVTQESALTTSPGETVTFTCRSSTGAVTTSNYANWVQEKPDHLFTGLIGGTNNRAPGVPARFSGSLIGDKAALTITGAQTEDEAIYFCALWYSNHWVFGGGTKLTVL
[2]
  Kd: 44 nM

B6: hSC37.17 (antibody, V domains shown)
VH: QVQLVQSGAEVKKPGASVKVSCKASGFNIKDTYIHWVRQAPGQGLEWMGRIDPANGKANYDPKFQGRVTMTRDTSTSTVYMELSSLRSEDTAVYYCALGGGYYGMDYWGQGTLVTVSS
VL: DIVMTQSPDSLAVSLGERATINCRASESVDSYGNSFMHWYQQKPGQPPKLLIYLASNLESGVPDRFSGSGSGTDFTLTISSLQAEDVAVYYCQQNNEDPLTFGQGTKVEIKR
[3]
  Kd: 1.2 nM

B7: hSC37.39 (antibody, V domains shown)
VH: QVQLVQSGAEVKKPGASVKVSCKASGYTFTTYTIHWVRQAPGQGLEWMGYINPRSGYTEYNQKFQDRVTMTRDTSTSTVYMELSSLRSEDTAVYYCARSYEFWGQGTTVTVSS
VL: EIVMTQSPATLSVSPGERATLSCKASQNVGINVAWYQQKPGQAPRALIYSASYRYSGIPARFSGSGSGTEFTLTISSLQSEDFAVYYCHQYKTYPYTFGGGTKVEIKR
[4]
  Kd: 0.34 nM

B8: RNF43 (other)
chain: T1 chain
SC37.78
  Kd: 10.8 nM
rSC37.39
  Kd: 1 nM
rSC37.67
  Kd: 5.4 nM
rSC37.17
  Kd: 9.3 nM
SC37.23
  Kd: 23.7 nM
SC37.9
  Kd: 160 nM

B9: SC37.39 (antibody, V domains shown)
VH: QVQLQQSAAELARPGASVKMSCKASGYTFTTYTIHWVKQRPGQGLKWIGYINPRSGYTEYNQKFQDKTTMTSDNSSSTAYIQLSSLTSEDSAVYYCARSYEFWGQGTTLTVSS
VL: DIVMTQSQKFMSTSGGDRVSVTCKASQNVGINVAWYQQKPGQSPKALIYSASYRYSGVPNRFTGSGSGTDFTLTISNVQSEDLGDYFCHQYKTYPYTFGGGTKLEIK
[4]
  Kd: 1.1 nM

B10: SC37.67 (antibody, V domains shown)
VH: QVQLQQSGAELMKPGASVKISCKATGYTFSRYWIEWVKQRPGHGLEWIGEILPGSGSTNYNEKFKGKATFTADTSSNTAYMQLTSLTSEDSAVYFCERRGAYWGQGTLVTVSA
VL: DIQMTQSSSSFSVSLGDRVTITCKASEDIYNRLAWYQQKPGNAPRLLISGATSLETGVPSRFSGSGSGKDYTLSITSLQTEDVATYHCQQNWSTPPTFGGGTKLEIK
[1]
  Kd: 3.5 nM
